Measurements from US20060154859A1.

Molecular target: mouse LEPRb (mouse), P48356
Experiment: cell-based or functional assay

mouse LEPRb (mouse), P48356, sequence (P48356 22-1162): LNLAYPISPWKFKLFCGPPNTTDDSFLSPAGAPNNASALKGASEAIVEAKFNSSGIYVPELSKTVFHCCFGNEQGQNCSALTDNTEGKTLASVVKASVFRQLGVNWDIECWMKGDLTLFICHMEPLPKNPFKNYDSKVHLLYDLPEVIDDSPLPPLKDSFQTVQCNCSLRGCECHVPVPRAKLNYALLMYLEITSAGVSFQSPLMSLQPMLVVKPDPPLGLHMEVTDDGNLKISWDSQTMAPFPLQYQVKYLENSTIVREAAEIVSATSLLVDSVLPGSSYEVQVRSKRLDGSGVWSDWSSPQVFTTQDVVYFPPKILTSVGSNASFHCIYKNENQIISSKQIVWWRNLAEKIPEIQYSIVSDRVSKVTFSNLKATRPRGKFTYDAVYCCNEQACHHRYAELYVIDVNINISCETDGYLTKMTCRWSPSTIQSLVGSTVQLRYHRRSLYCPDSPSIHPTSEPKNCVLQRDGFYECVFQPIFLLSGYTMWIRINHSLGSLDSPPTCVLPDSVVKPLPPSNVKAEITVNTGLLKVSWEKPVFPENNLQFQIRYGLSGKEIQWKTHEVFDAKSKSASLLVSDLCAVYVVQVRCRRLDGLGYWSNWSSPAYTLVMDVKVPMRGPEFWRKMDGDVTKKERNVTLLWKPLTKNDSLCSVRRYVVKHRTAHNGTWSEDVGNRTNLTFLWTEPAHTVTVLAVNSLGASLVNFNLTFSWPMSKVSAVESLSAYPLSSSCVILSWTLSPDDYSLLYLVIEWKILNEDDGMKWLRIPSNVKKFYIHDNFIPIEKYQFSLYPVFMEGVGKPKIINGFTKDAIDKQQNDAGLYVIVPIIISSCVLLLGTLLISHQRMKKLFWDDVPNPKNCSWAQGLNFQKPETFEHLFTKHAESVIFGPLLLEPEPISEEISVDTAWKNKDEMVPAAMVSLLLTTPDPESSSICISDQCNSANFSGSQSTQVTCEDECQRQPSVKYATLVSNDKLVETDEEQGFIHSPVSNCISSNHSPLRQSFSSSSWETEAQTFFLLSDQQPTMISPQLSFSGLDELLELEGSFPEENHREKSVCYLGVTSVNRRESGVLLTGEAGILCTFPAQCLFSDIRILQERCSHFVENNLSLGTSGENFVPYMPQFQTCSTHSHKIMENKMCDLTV

B1: human leptin L39A/D40A/F41A/I42A mutant, P41159 22-167 (ligand)
chain: VPIQKVQDDTKTLIKTIVTRINDISHTQSVSSKQKVTGAAAAPGLHPILTLSKMDQTLAVYQQILTSMPSRNVIRISNDLENLRDLLHVLAFSKSCHLPWASGLETLDSLGGVLEASGYSTEVVALSRLQGSLQDMLWQLDLSPGC
- inhibition of leptin-inducible transactivation of luciferase reporting gene in CHO cells transiently transfected with leptin receptor, stimulated with 6.25 nM human leptin: 10 nM
